This test has as its target T1, PcrV (130–263) (Pseudomonas aeruginosa, UniProt G3XD49).
T1 construct: PcrV, type III secretion system needle-tip protein of Pseudomonas aeruginosa, residues 130Ala-263Asn; also called recombinant PcrV (130–263); partial PcrV (130–263); source: E. coli, purified (Profinity eXact Fusion-Tag system, Superdex75)
Description: crystal structure; h1F3 Fab and PcrV (130-263) mixed at a molar ratio of 1:2 in TBS with 0.5 mM TCEP at 4°C overnight, equimolar complex separated by Superdex200; crystals by sitting drop in 0.1 M acetate-Na pH 5.6, 24% PEG3350, 0.125 M CaCl2 at 20°C. As to conditions: both partners purified.

The source of these data is article PMC11459929, “Novel humanized anti-PcrV monoclonal antibody COT-143 protects mice from lethal Pseudomonas aeruginosa infection via inhibition of toxin translocation by the type III secretion system” (Antimicrobial Agents and Chemotherapy, 2024).

B1: h1F3 Fab (Fab, V domains shown)
VH: QVQLVQSGAEVKKPGASVKVSCKASGYSFTSYWMHWVRQAPGQGLEWMGEINPSNGRTNYNEKFNTRVTMTRDTSTSTVYMELSSLRSEDTAVYYCVLYGNYVVYYTMDYWGQGTTVTVSS
VL: DIQLTQSPSFLSASVGDRVTITCSASTSVSYMEWYQQKPGKAPKLLIYTTSKLASGVPSRFSGSGSGTEFTLTISSLQPEDFATYYCHQWRNYPFTFGQGTKLEIK
notes: Fab part of the heavy chain of h1F3 (humanized from mouse m1F3 by CDR grafting with H93 and H94 back-mutation, human IgG4Pro format); light chain of h1F3 (has the mouse residue Ala at L128); also called Fab fragment of h1F3; pre-optimized COT-143 (Fab); source: papain digestion of h1F3, purified (HiTrap Protein A flow-through, Mono S, Superdex200)
Take B1: the binding result is listed as “binds”.
